Results on 2 molecules are retold here after patent US20190099499A1 (Pfizer, published 2019).

The target of assay [1] is T1, human Fc-gamma receptor IIIa (CD16a) (human, UniProt P08637 17-208).
T1 construct: Soluble receptor injected over captured antibody; also called FcγIIIa (CD16); FcγIIIa (CD16a)
The assay is described as follows: SPR (BIAcore), antibody captured on immobilized CD33 ECD, receptor injected; steady state fit.
Description: (§1) Various concentrations of the Fcγ receptors FcγIIa (CD32a), FcγIIb(CD32b), FcγIIIa (CD16a) and FcγRI (CD64) were injected over the surface and binding was determined.

The target of assay [2] is T2, human Fc-gamma receptor IIb (CD32b) (human, UniProt P31994 43-217).
T2 construct: Soluble receptor injected over captured antibody; also called FcγIIb(CD32b)
T2 sequence (looked up): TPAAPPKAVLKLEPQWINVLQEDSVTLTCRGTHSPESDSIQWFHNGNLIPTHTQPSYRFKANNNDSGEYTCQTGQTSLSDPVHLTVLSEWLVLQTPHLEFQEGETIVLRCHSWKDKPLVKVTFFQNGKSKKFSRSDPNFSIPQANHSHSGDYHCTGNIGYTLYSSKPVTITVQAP
The assay is described as above.
Description: as §1

Assay [3] deals with T3, human Fc-gamma receptor IIa (CD32a) (human, UniProt P12318 34-217).
T3 construct: Soluble receptor injected over captured antibody; also called FcγIIa (CD32a)
T3 sequence (looked up): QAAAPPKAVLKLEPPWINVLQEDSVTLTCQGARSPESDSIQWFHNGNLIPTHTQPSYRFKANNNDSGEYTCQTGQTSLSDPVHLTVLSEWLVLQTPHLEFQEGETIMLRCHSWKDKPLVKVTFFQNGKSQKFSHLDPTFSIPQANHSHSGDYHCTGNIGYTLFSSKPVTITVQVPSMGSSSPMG
The description is as above.
Description: as §1

The target of assay [4] is T4, human Fc-gamma receptor I (CD64) (human, UniProt P12314 16-288, limits assumed).
T4 construct: Soluble receptor injected over captured antibody; also called FcγRI (CD64)
The assay is described as follows: SPR (BIAcore), antibody captured on immobilized CD33 ECD, receptor injected; kinetic fit.
Description: as §1

Assay [5] deals with T5, human FcRn, biotinylated through an engineered Avi-tag (human, UniProt P55899 24-297; P61769 21-119).
T5 construct: not shown: engineered Avi-tag
In words: SPR (BIAcore), steady-state, pH 6.0; biotinylated human FcRn on streptavidin chip, antibody injected.

The target in assay [6] is T5, human FcRn, biotinylated through an …. The assay is described as follows: SPR (BIAcore), steady-state, pH 6.0; biotinylated human FcRn on streptavidin chip, ADC injected.
Excerpt: BIAcore® technology utilizes changes in the refractive index at the surface layer of a sensor upon binding of the anti-CD33 derived monoclonal antibodies or their respective ADCs to human FcRn protein immobilized on the layer. Binding was detected by surface plasmon resonance (SPR) of laser light refracting from the surface. Human FcRn was specifically biotinylated through an engineered Avi-tag using the BirA reagent (Catalog #: BIRA500, Avidity, LLC, Aurora, Colo.) and immobilized onto a streptavidin (SA) sensor chip to enable uniform orientation of the FcRn protein on the sensor.
Assay [7] concerns the target T4, human Fc-gamma receptor I (CD64). In words: SPR (BIAcore), ADC captured on immobilized CD33 ECD, receptor injected; kinetic fit. For orientation: Surface plasmon resonance follows binding to a sensor surface in real time, without labels.
Description: as §1
Assay [8] concerns the target T1, human Fc-gamma receptor IIIa (CD16a). In words: SPR (BIAcore), ADC captured on immobilized CD33 ECD, receptor injected; steady state fit.
Description: as §1
Assay [9] has as its target T2, human Fc-gamma receptor IIb (CD32b). The description is as above.
Description: as §1
The target in assay [10] is T3, human Fc-gamma receptor IIa (CD32a). The assay is described as above.
Description: as §1

T4 sequence (P12314 16-288 limits assumed): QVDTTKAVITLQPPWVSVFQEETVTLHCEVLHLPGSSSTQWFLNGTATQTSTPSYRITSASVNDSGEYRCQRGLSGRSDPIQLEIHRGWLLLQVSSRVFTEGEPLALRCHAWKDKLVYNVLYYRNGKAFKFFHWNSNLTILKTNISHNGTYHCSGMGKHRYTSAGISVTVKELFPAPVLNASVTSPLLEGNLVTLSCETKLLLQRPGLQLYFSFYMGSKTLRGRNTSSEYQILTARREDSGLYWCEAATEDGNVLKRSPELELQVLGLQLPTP
T1 sequence (P08637 17-208 limits assumed): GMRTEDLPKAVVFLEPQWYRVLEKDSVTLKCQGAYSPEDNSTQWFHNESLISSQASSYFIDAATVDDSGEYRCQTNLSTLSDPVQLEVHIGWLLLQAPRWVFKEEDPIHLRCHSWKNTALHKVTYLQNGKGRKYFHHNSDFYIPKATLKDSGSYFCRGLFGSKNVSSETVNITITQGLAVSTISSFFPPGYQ
T5 sequence (P55899 24-297 limits assumed, change not shown, chain 1 of 2): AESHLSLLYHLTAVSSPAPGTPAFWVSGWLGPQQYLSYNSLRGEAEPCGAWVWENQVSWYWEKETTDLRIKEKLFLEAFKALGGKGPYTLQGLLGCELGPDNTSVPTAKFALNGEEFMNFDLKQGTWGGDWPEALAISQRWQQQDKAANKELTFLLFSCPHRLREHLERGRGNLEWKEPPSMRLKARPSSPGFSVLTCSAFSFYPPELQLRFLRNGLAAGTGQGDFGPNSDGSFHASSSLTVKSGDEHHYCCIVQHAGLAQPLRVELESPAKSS
T5 sequence (P61769 21-119 limits assumed, change not shown, chain 2 of 2): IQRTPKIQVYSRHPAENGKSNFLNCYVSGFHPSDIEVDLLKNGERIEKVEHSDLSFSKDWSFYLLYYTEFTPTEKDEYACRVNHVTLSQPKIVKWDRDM

B1: CD33-(K334C/K392C) antibody (unconjugated) (antibody, human IgG1)
heavy: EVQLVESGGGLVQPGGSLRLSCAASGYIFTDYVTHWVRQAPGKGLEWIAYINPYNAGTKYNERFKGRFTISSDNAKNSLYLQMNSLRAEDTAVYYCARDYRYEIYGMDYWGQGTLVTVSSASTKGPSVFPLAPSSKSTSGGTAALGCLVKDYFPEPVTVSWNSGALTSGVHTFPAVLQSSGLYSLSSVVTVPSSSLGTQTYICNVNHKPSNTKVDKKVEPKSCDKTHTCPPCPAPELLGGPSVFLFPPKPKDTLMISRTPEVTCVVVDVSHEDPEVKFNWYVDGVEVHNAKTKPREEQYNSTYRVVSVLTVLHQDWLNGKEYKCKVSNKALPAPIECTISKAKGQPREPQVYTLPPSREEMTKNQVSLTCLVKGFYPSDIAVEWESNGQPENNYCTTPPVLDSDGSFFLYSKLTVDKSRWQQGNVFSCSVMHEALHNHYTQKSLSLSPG
light: DIQLTQSPSSLSASVGDRVTITCRASSSVGYMHWYQQKPGKAPKLLIYDTSQLASGVPSRFSGSGSGTDFTLTISSLQPEDFATYYCQLWSSNPLTFGGGTKVEIKRTVAAPSVFIFPPSDEQLKSGTASVVCLLNNFYPREAKVQWKVDNALQSGNSQESVTEQDSKDSTYSLSSTLTLSKADYEKHKVYACEVTHQGLSSPVTKSFNRGEC
notes: Human IgG1 with engineered Cys at heavy chain positions 334 and 392 (Eu index of Kabat); also called CD33-(K334C/K392C)-human IgG1 antibody
As a reminder, the Kd is the free concentration of one partner at which half of the binding sites on the other are occupied at equilibrium, for simple one-to-one binding. Consider B1, for which the Kd in assay [1] was 210 nM; in assay [2] it was 3460 nM; in assay [3] it was 900 nM; in assay [4] it was 0.02 nM; in [5] it was 964 nM.

B2: CD33-(K334C/K392C)-CPI (CD33-(K334C/K392C)-MalPeg6-vc-PABC-DMAE-CPI ADC) (antibody, human IgG1)
heavy: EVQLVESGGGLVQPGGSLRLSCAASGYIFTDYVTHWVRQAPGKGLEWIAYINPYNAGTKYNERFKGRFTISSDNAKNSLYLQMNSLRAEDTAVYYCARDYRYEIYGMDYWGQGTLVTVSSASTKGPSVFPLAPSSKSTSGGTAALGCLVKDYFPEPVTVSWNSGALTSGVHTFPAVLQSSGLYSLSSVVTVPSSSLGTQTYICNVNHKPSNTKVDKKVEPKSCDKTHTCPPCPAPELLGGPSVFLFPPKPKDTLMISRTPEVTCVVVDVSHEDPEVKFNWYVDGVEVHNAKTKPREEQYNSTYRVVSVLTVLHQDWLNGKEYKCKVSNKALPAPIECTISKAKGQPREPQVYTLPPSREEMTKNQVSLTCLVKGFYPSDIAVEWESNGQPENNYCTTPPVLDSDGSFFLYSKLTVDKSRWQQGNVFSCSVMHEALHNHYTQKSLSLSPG
light: DIQLTQSPSSLSASVGDRVTITCRASSSVGYMHWYQQKPGKAPKLLIYDTSQLASGVPSRFSGSGSGTDFTLTISSLQPEDFATYYCQLWSSNPLTFGGGTKVEIKRTVAAPSVFIFPPSDEQLKSGTASVVCLLNNFYPREAKVQWKVDNALQSGNSQESVTEQDSKDSTYSLSSTLTLSKADYEKHKVYACEVTHQGLSSPVTKSFNRGEC
modifications: linker-payload MalPeg6-vc-PABC-DMAE-CPI (LP7) on engineered Cys 334 and Cys 392 (Eu index of Kabat); DAR 4.0
notes: Antibody drug conjugate, human IgG1
On to B2, for which the Kd turned out to be 1220 nM in assay [6]; 0.17 nM in assay [7]; 5650 nM in assay [8]; 20100 nM in assay [9]; 12900 nM in assay [10].
